Assay results from publication PMC10494239.

Molecular target: Interleukin-1 receptor 1 on human umbilical vein endothelial cells (human (endogenous in HUVEC)) (UniProt P14778)
UniProt P14778, sequence (P14778 18-569): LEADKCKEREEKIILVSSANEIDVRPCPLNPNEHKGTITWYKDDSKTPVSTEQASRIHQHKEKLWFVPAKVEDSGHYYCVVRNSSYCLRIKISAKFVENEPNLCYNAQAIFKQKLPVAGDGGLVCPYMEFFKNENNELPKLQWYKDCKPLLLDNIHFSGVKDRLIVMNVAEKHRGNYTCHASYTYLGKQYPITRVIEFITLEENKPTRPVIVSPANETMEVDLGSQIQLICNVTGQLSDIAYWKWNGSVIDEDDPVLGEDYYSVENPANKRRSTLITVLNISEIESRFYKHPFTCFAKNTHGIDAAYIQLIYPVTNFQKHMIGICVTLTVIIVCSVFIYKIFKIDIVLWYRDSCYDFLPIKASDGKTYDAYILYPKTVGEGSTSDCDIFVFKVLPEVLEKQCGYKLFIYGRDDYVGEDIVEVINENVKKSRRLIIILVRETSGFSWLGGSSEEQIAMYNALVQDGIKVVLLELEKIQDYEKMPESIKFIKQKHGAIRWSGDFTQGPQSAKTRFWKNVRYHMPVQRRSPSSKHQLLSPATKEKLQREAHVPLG

- percent VCAM1-positive HUVECs (flow cytometry) after 4h with unstimulated monocytes (% VCAM pos. cells): 2.5
- percent VCAM1-positive HUVECs (flow cytometry) after 4h with upLPS-stimulated monocytes (% VCAM pos. cells): 25.9
- percent VCAM1-positive HUVECs (flow cytometry) after 4h with upLPS-stimulated monocytes, HUVECs pre-treated 1h with neutralizing IL1R1 antibody (10 µg/ml, AB-269-NA, R&D Systems) (% VCAM1 pos. cells): 18.6
- percent adhesion of calcein-labeled, LPS-pre-stimulated monocytes to HUVECs (remaining fluorescence after washing): 6.7%
- percent adhesion of calcein-labeled, non-stimulated monocytes to HUVECs (remaining fluorescence after washing): 3.5%
Substance: cell-surface Interleukin-1α on human primary monocytes (from UniProt P01583 113-271) (ligand)
